Reference: the DeepSol protein solubility set

Test: soluble on expression in E. coli; label from the status in PepcDB or PDB records

Row | Sequence | soluble on expression in E. coli
1 | SLNVPDMILYNGKITTLDPSQPEVSAIAITDGLITAVGGYELLNSATEKTKKIDLKRKRAIPGLNDSHIHVIRGGLHYNMELRWEGVPSIAIALEMLKEQARRTPAPQWVRVVGGWSEFQFKERRMPTLEEINAVSEDTPVFVLHLYDRALVNRAGLRALGYTKDTPDPPGCLIERDKRGNPTGLLIANPNASILYSSLGKAPILNFDDQINSTRHFMRELNRLGITSAIDAGGGFQNYPDDYRVVEHLAEKEQLTLRIAYNLFTQNPNHEYEDFASWAKIVSPGQGNDKYKMNGAGEMLVFSAADFEKFQMPRPELATMMEADLKKVISLLVENRWPFRLHATYDESITRFLNVFEEVNKEIPFNGLRWWFDHAETISDRSMERVKALNGGIAIQDRMAFQGEYFVDLYGKEAAKRTPPIYRMLDLGIPVGAGSDATRVSSYNPWVALYWMVAGKTIGGLSIYDKKNKLDRKVALELYSKGSAWFSGDEGKKGTLAVGQFADIAVLSADYFTVPEEEIKDLESLLTIMGGQVVYGNDEFKNLSPELPPASPDWSPTGVYGYGGANLAHTILSHNSHDNKLHSCSNPLHQHTHTVIGKDGTKWGIGCTCFAF | not soluble
2 | SLQGKPTISVPEFKNDTNMSWWWWSGNTSRELADALSNELTSTGNFQVVERQNLGSVLSEQELAELGLTRPETSAQRGQLTGAQYIVLGRVTAYEEGVSSESGGNNFGLNLGLFSIGNSERQAKQEAYVAIDLRVVDSSTGEVVYARTVEGRATDTAASSANNVNILGIVNTGQDNQSTSRAPVGKALRAGLVEITDYLSCVMVEQDNCIQEYQDKDRQRRQKTKDTLILE | soluble
3 | SLQKLQAQGVHHITLVGAGRQTSIDFWEGVLGMPFIFEQPNLDKASESHLYFDPGDGRLITVFTDESRTPQKRRTPTDPGCVHHIAFAVSRVTFLQAVARLDERGIKHSGVKDRGFMDSIYFEDPLGLLIELASYRFEPPAGFTHADVLMQAHRLRVGRGDYNIAEVHLADAIQVLVESSREG | soluble
4 | SLRFYAACLASYNNGVLHGRWIDASSDTDEMQEEVSAMLRASRFPNVMVKCPNCEGRLELCTVCDGGSREVPSAEEWAIHDYDGLPSSLGEYPGLDKIAAFVELCEEHDMTGEDMAAIVSHFGSVEYAKEELGNNFVGVHESFRAYAEELADEMLSAHDIKADHPLSQYFDYEAYARDLRHSASAVELDEGVAVFCV | soluble
5 | SLRITRIRLYKTDLPYVDGSYGWGAGNAITVARASVVVIDTDAGLQGCGEFTPCGENYMIAHSEGVDAFARLAAPQLLGQDPRQVARMERLMDHLVQGHGYAKAPFDAAFWDILGQATGQPVWMLLGGKLCDGAPMYRVAPQRSEAETRAELARHRAAGYRQFQIKVGADWQSDIDRIRACLPLLEPGEKAMADANQGWRVDNAIRLARATRDLDYILEQPCRSYEECQQVRRVADQPMKLDECVTGLHMAQRIVADRGAEICCLKISNLGGLSKARRTRDFLIDNRMPVVAEDSWGGEIASAAVAHFAASTPEEFLINSTDLMNYNTRSTGLGGPTVHQGRLYASDTPGLGVTPDFNSLGAPVADWALP | not soluble
6 | SLSRPWQGKGCATLWASVDHRFQINLRGVIDLLSHHLYSSPDVYIRELLQNATDAIRARQHLEPGHEGSIRIELIEKQDGGPPTLLFSDDGIGLTEEEIHRFLATIGESSKREVLAERRGDFIGQFGIGLLSCFMVCDEVLVVTRSAQGGSPTMEWRGRHDGIYTVRPSGHPLERPGTQVFLVARPDAASLFTPQRVRELALHYGGLLPFPIHLTAGGYSGRINTEG | soluble
7 | SLSSPLLPAPVCNPNKAIFTVDAKTTEILVANDKACGLLGYSSQDLIGQKLTQFFLRSDSDVVEALSEEHMEADGHAAVVFGTVVDIISRSGEKIPVSVWMKRMRQERRLCCVVVLEPVER | soluble
8 | SLSVVAPAVYVGTWHKYNCGSIAGRWFDLTTFDDERDFFAACRALHQDEADPELMFQDYEGFPGNMASECHINWAWVEGFRQARDEGCEEAYRLWVEDTGETDFDTFRDAWWGEADSEEAFAVEFASDTGLLADVPETVALYFDYEAYARDLFLDSFTFIDGHVFRR | soluble
9 | SLTRNNELIAVGKGSSLKRLPVFGMEPRILYNPLQGQKCIVQTTSWSQCSKTCGTGISTRVTNDNPECRLVKETRICEVRPCGQPVYSSLKKGKKCSKTKKSPEPVRFTYAGCLSVKKYRPKYCGSCVDGRCCTPQLTRTVKMRFRCEDGETFSKNVMMIQSCKCNYNCPHANEAAFPFYRLFNDIHKFRDEG | not soluble
10 | SLVSSSKITRAREMVTKTEEKQLNQLEIQVDNGGGGTWEYLCLVRNLKVRRSEKVLKHGSSILNDQKKRSALGPDEWTLNEQVAIAAMDCQCLGVAQSCIKALQTKFPGSKRVGRLEALLLEAKGLWGEAEEAYASLLEDNPLDQAIHKRRVAISKALGKPSIAIELLNKYLELFMADHDAWRELAELYLSLQMYKQAAFCYEELILSQPTVPLYHLAYAEVLYTIGGVENIISARKYYAATVDLTGGKNTRALLGICLCASAIAQLSKGRNKEDKDATAAPELHSLAAAAVEKEYKQKAPDKLQLISSALRILKT | soluble
11 | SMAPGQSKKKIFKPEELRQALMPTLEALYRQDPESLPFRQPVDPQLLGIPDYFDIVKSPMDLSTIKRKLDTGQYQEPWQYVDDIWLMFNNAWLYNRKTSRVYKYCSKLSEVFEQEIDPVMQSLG | soluble
12 | SMEVFQNHFEPGVYVCAKCGYELFSSRSKYAHSSPWPAFTETIHADSVAKRPEHNRSEALKVSCGKCGNGLGHEFLNDGPKPGQSRFSIFSSSLKFVPKGKETSA | soluble
13 | SMFKYEEIVLERGNSGLGFSIAGGIDNPHVPDDPGIFITKIIPGGAAAMDGRLGVNDCVLRVNEVDVSEVVHSRAVEALKEAGPVVRLVVRRRQPPPEETSV | soluble
14 | SMKQDSRFPNLFILDHPLIQHKLTHMRDKDTSTRTFRELLREITLLMGYEITRNLPITTKRVETPLVEIDAPVIAGKKLAIVPVLRAGVGMSDGLLELIPSARVGHIGVYRADDHRPVEYLVRLPDLEDRIFILCDPMVATGYSAAHAIDVLKRRGVPGERLMFLALVAAPEGVQVFQDAHPDVKLYVASLDSHLDDHAYIVPGLGDAGDRLFGTKN | soluble
15 | SMSRKRPPSDIHDSDGSSSSSHQSLKSTAKWAASLENLLEDPEGVKRFREFLKKEFSEENVLFWLACEDFKKMQDKTQMQEKAKEIYMTFLSSKASSQVNVEGQSRLNEKILEEPHPLMFQKLQDQIFNLMKYDSYSRFLKSDLFLKHKRTEE | soluble
16 | SMVQSSGPMDVTSLTEELKKLAKQGWYWGPITRWEAEGKLANVPDGSFLVRDSSDDRYLLSLSFRSHGKTLHTRIEHSNGRFSFYEQPDVEGHTSIVDLIEHSIGDSENGAFCYSRSRLPGSATYPVRLTNPVSRFMQVRS | soluble
17 | SMVSPREKQQTNSKGSSNFCVKNIKQAEFGRREIEIAEQDMSALISLRKRAQGEKPLAGAKIVGCTHITAQTAVLIETLCALGAQCRWSACNIYSTQNEVAAALAEAGVAVFAWKGESEDDFWWCIDRCVNMDGWQANMILDDGGDLTHWVYKKYPNVFKKIRGIVEESVTGVHRLYQLSKAGKLCVPAMNVNDSVTKQKFDNLYCCRESILDGLKRTTDVMFGGKQVVVCGYGEVGKGCCAALKALGAIVYITEIDPICALQACMDGFRVVKLNEVIRQVDVVITCTGNKNVVTREHLDRMKNSCIVCNMGHSNTEIDVTSLRTPELTWERVRSQVDHVIWPDGKRVVLLAEGRLLNLSCSTVPTFVLSITATTQALALIELYNAPEGRYKQDVYLLPKKMDEYVASLHLPSFDAHLTELADDQAKYLGLNKNGPFKPNYYRY | soluble
18 | SNAGAPLKAVSAFAPPMKTQDFNLYTNEVHAKFDDYDLGMEYARQHNKPVMLDFTGYGCVNCRKMELAVWTDPKVSSIINNDYVLITLYVDNKTPLTEPVKIMENGTERTLRTVGDKWSYLQRVKFGANAQPFYVLIDNEGNPLNKSYAYDEDISKYINFLQTGLENYRKEK | soluble
19 | SNAMAVETLYRSTRDLETTFVDRKLADAHDQMLELAELLTDVLIKNVPGLSEKHAEDASIYMAKNRAVFAAAFKNNATALSELSEPAESEG | soluble
20 | SNAMDFHIRKATNSDAEAIQHVATTSWHHTYQDLIPSDVQDDFLKRFYNVETLHNRISATPFAVLEQADKVIGFANFIELEKGKSELAAFYLLPEVTQRGLGTELLEVGMTLFHVPLPMFVNVEKGNETAIHFYKAKGFVQVEEFTEDFYGYPLETIRFNLNH | soluble
21 | SNAMILVPIDISDKEFTERIISHVESEARIDDAEVHFLTVIPSLPYYASLGMAYTAELPGMDELREGSETQLKEIAKKFSIPEDRMHFHVAEGSPKDKILALAKSLPADLVIIASHRPDITTYLLGSNAAAVVRHAECSVLVVR | soluble
22 | SNAMIRFQPITTSDVQHYKFMEELLVESFPPEEYRELEHLREYTDRIGNFHNNIIFDDDLPIGFITYWDFDEFYYVEHFATNPALRNGGYGKRTLEHLCEFLKRPIVLEVERPVEEMAKRRINFYQRHGFTLWEKDYYQPPYKEGDDFLPMYLMVHGNLDAEKDYEGIRHKLHTIVYGVKE | soluble
23 | SNAMKKGTVLNSEISSVISRLGHTDTLVVCDAGLPIPNSTARIDMALTQGVPSFMQVVDVVTREMQVEAAILATEIKQQNPQLHETLLTHLEQLQQHQGNTIKISYTTHEQFKKLTADSQAVIRSGECSPYANVILCAGVTF | soluble
24 | SNAMLIIETLPLLRQHIRRLRQEGKRVALVPTMGNLHDGHMKLVDEAKARADVVIVSIFVNPMQFDRPDDLVRYPRTLQEDCEKLNKRKVDYVFAPAVEEIYPHGLEGQTYVDVPGLSTMLEGASRPGHFRGVSTIVSKLFNLIQPDIACFGEKDFQQLALIRKMVADMSYDIEIVGVPIIRAKDGLALSSRNAYLTAEQRKIAPGLYNVMNSIAEKLIAGNRELQEIIAIAEQELNEKGFRADDIQIRDADTLLELTETSKRAVILAAAWLGQARLIDNQSVTLAQ | soluble
25 | SNAMSKITFKDIYIDGNKITEDSRKAIYLLPPQPLKYASNTWIYKTMPTMNQWLKDIEVQKKMHLNQSSYHLSFSFPANEKIDEVLLEKIRELGFQIGVLELYVIEAKALKELSRKRDVDIQLVSSNNINDYLHVYDAFARPFGDSYANMVKQHIYSSYNLDDIERLVAYVNHQPVGIVDIIMTDKTIEIDGFGVLEEFQHQGIGSEIQAYVGRMANERPVILVADGKDTAKDMYLRQGYVYQGFKYHILKENI | soluble
26 | SNAQDVPVTQVMTPRPVVFRVDATMTINEFLDKHKDTPFSRPLVYSEQKDNIIGFVHRLELFKMQQSGSGQKQLGAVMRPIQVVLNNTALPKVFDQMMTHRLQLALVVDEYGTVLGLVTLEDIFEHLVGE | soluble
27 | SNNWVVSGSLTVSGNPLLANDPHLSLTAPGIWLPIVISSPSYSLAGVTIPGVPLVVIGRNSHVAWGFTNVGSDFTDFYRYQWVDENRYFYKGRIFGVEKSSIEAYVWDPLARSYRVQEISVARTIHGPVIEWQGEKFAVSYTSARPTFEMIFLWLLNKASSVRDALSAQRYFYGPPQNMVVADSAGNIAYSPVGAYPERATLPTIETGYGPIVNTGFLPFDGSAGEGEWRGFKPYSSLPVLFNPPQGFVATANSKPFEDGCWDGLGWDYADRFRTERIYTLLQERSAEEPLDAGDMRDIQLDVEDLGLKTLVSLMVRVASGDGGHVLERYMDMLAEWAENPQMNVDDYKPTLALLASWYFARDFWESLYGSEEHWRFIKLEYAEKALKAYLRGEDWVFNYF | not soluble
